This passage reports Km, kcat and kcat/Km results from article PMC10991500, “A multi-enzyme cascade for efficient production of D-p-hydroxyphenylglycine from L-tyrosine” (Bioresources and Bioprocessing, 2021).

The term Km denotes the concentration of substrate that gives half-maximal velocity. Broadly, the kcat is the number of substrate molecules converted per active site and unit of time at saturation. What is called kcat/Km is the turnover number divided by the Michaelis constant.

In one data set the test system is T1, PmL-AAD.
T1 construct: recombinant in E. coli BL21(DE3), Tween 80 solubilised, HisTrap purified
Nature of the data set: initial rates by HPLC, Michaelis-Menten fit. It counts as biochemical, Proteus mirabilis. The following applies: 50 mM Tris-HCl pH 8.0, 30 °C; substrate 1-20 mM. The source says: initial rates by HPLC, Michaelis-Menten fit on PmL-AAD

Substrate in data set [1]: O=C(O)C(=O)c1ccc(O)cc1
Briefly: initial rates of reductive amination, HPLC, Michaelis-Menten fit. It counts as biochemical, Corynebacterium glutamicum. The conditions noted are these: 0.5 mM NADPH, 10 mM NH4Cl, 50 mM Tris-HCl pH 8.0, 30 °C, HPGA 1-20 mM. The source says:
initial rates of reductive amination, HPLC, Michaelis-Menten fit on CgDAPDH^BC621

Substrate in data set [2]: O=C(O)[C@@H](O)c1ccc(O)cc1
Nature of the data set: initial rates by HPLC, Michaelis-Menten fit. It counts as biochemical, Pseudomonas aeruginosa. The conditions noted are these: 0.5 mM NADP+, 50 mM Tris-HCl pH 8.0, 30 °C, substrate 1-20 mM. From the text:
initial rates by HPLC, Michaelis-Menten fit on PaMDH

As to `N[C@@H](Cc1ccc(O)cc1)C(=O)O` [L-tyrosine], the Km in the data set with PmL-AAD was 2.94 ± 1.04 mM.

B1: CgDAPDH^BC621 (Corynebacterium glutamicum ATCC 13032; D154G/H244N/Q150L/R195M/T169I) (protein)
chain: MTNIRVAIVGYGNLGRSVEKLIAKQPDMDLVGIFSRRATLDTKTPVFDVADVDKHADDVDVLFLCMGSATDIPEQAPKFAQFACTVDTYDNHRDIPRHRQVMNEAATAAGNVALVSTGWDPGMFSINRVYAAAVLAEHQQHTFWGPGLSLGHSGALRRIPGVQKAVQYILPSEDALEKARRGEAGDLTGKQTHKMQCFVVADAADHERIENDIRTMPDYFVGYEVEVNFIDEATFDSEHTGMPNGGHVITTGDTGGFNHTVEYILKLDRNPDFTASSQIAFGRAAHRMKQQGQSGAFTVLEVAPYLLSPENLDDLIARDV
notes: five-fold mutant BC621 in pET28a, recombinant in E. coli BL21(DE3), HisTrap purified
As to B1, in data set [1], the Km came to 20.37 ± 0.19 mM, the kcat came out at 0.00317 ± 0.00617 s⁻¹ and the kcat/Km was determined as 0.15 M⁻¹ s⁻¹.

B2: CgDAPDH^BC621 (Corynebacterium glutamicum ATCC 13032; D120S/D154G/H244N/Q150L/R195M/T169P) (protein)
chain: MTNIRVAIVGYGNLGRSVEKLIAKQPDMDLVGIFSRRATLDTKTPVFDVADVDKHADDVDVLFLCMGSATDIPEQAPKFAQFACTVDTYDNHRDIPRHRQVMNEAATAAGNVALVSTGWSPGMFSINRVYAAAVLAEHQQHTFWGPGLSLGHSGALRRIPGVQKAVQYPLPSEDALEKARRGEAGDLTGKQTHKMQCFVVADAADHERIENDIRTMPDYFVGYEVEVNFIDEATFDSEHTGMPNGGHVITTGDTGGFNHTVEYILKLDRNPDFTASSQIAFGRAAHRMKQQGQSGAFTVLEVAPYLLSPENLDDLIARDV
notes: as for B1
In the case of B2, in data set [1], the Km turned out to be 7.83 ± 0.03 mM, the kcat stood at 0.0243 ± 0.0117 s⁻¹ and the kcat/Km worked out at 3.17 M⁻¹ s⁻¹.

B3: CgDAPDH^BC621 (Corynebacterium glutamicum ATCC 13032; D120S/D154G/H244N/Q150L/R195M/T169P/W144S) (protein)
chain: MTNIRVAIVGYGNLGRSVEKLIAKQPDMDLVGIFSRRATLDTKTPVFDVADVDKHADDVDVLFLCMGSATDIPEQAPKFAQFACTVDTYDNHRDIPRHRQVMNEAATAAGNVALVSTGWSPGMFSINRVYAAAVLAEHQQHTFSGPGLSLGHSGALRRIPGVQKAVQYPLPSEDALEKARRGEAGDLTGKQTHKMQCFVVADAADHERIENDIRTMPDYFVGYEVEVNFIDEATFDSEHTGMPNGGHVITTGDTGGFNHTVEYILKLDRNPDFTASSQIAFGRAAHRMKQQGQSGAFTVLEVAPYLLSPENLDDLIARDV
notes: as for B1
For B3, in data set [1], the Km turned out to be 2.48 ± 0.28 mM, the kcat is 0.0448 ± 0.005 s⁻¹ and the kcat/Km was 18 M⁻¹ s⁻¹.

B4: CgDAPDH^BC621 (Corynebacterium glutamicum ATCC 13032; D154G/H244N/Q150L/R195M/T169P) (protein)
chain: MTNIRVAIVGYGNLGRSVEKLIAKQPDMDLVGIFSRRATLDTKTPVFDVADVDKHADDVDVLFLCMGSATDIPEQAPKFAQFACTVDTYDNHRDIPRHRQVMNEAATAAGNVALVSTGWDPGMFSINRVYAAAVLAEHQQHTFWGPGLSLGHSGALRRIPGVQKAVQYPLPSEDALEKARRGEAGDLTGKQTHKMQCFVVADAADHERIENDIRTMPDYFVGYEVEVNFIDEATFDSEHTGMPNGGHVITTGDTGGFNHTVEYILKLDRNPDFTASSQIAFGRAAHRMKQQGQSGAFTVLEVAPYLLSPENLDDLIARDV
notes: as for B1
For the molecule B4, in data set [1], the Km is listed as 8.17 ± 0.89 mM, the kcat was determined as 0.0247 ± 0.00417 s⁻¹ and the kcat/Km was found to be 3 M⁻¹ s⁻¹.

B5: CgDAPDH^BC621 (Corynebacterium glutamicum ATCC 13032; D154G/H244N/Q150L/R195M/T169P/W144S) (protein)
chain: MTNIRVAIVGYGNLGRSVEKLIAKQPDMDLVGIFSRRATLDTKTPVFDVADVDKHADDVDVLFLCMGSATDIPEQAPKFAQFACTVDTYDNHRDIPRHRQVMNEAATAAGNVALVSTGWDPGMFSINRVYAAAVLAEHQQHTFSGPGLSLGHSGALRRIPGVQKAVQYPLPSEDALEKARRGEAGDLTGKQTHKMQCFVVADAADHERIENDIRTMPDYFVGYEVEVNFIDEATFDSEHTGMPNGGHVITTGDTGGFNHTVEYILKLDRNPDFTASSQIAFGRAAHRMKQQGQSGAFTVLEVAPYLLSPENLDDLIARDV
notes: as for B1
B5: in data set [1], the Km was found to be 8.07 ± 0.68 mM, the kcat stood at 0.0225 ± 0.0232 s⁻¹ and the kcat/Km amounted to 2.83 M⁻¹ s⁻¹.

B6: PaMDH (Pseudomonas aeruginosa) (protein)
chain: MSQNLFNVEDYRKLAQKRLPKMVYDYLEGGAEDEYGVKHNRDVFQQWRFKPKRLVDVSRRSLQAEVLGKRQSMPLLIGPTGLNGALWPKGDLALAQAATKAGIPFVLSTASNMSIEDLARQCDGDLWFQLYVIHREIAQGMVLKALHSGYTTLVLTTDVAVNGYRERDLHNRFKMPMSYTPKVMLDGCLHPRWSLDLVRHGMPQLANFVSSQTSSLEMQAALMSRQMDASFNWEALRWLRDLWPHKLLVKGLLSAEDADHCIAEGADGVILSNHGGRQLDCAVSPMEVLAQSVAKTGKPVLIDSGFRRGSDIVKALALGAEAVLLGRATLYGLAARGETGVDEVLTLLKADIDRTLAQIGCPDITSLSPDYLQSEGVTSTAPVDHLIGKGTHA
notes: recombinant in E. coli BL21(DE3), HisTrap purified
Take B6: in data set [2], the Km worked out at 0.89 ± 0.91 mM, the kcat was 0.123 ± 0.0122 s⁻¹ and the kcat/Km worked out at 179 ± 3.67 M⁻¹ s⁻¹.
